Data as given in the supplement of paper PMC10567573.

B1: C1orf55 (parent)
chain: FTSPDYQQQCHEMAERLEDSVLKG

Variants of: B1
Test: protein stability index of a GFP-peptide fusion (GPS, HEK-293T) (PSI 1-6); higher = more stable
Conditions: c terminus: a fixed tail appended
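Also: lentivirally expressed fusions sorted by FACS into six bins by GFP to DsRed ratio, PSI derived from sequencing read proportions per bin multiplied by bin number.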

Row | Variant | protein stability index
1 | FTSPDYRQQCHEMAERLEDSVLKG | 1.85
2 | FTSPDYSQQCHEMAERLEDSVLKG | 2.24
3 | FTSPDYYQQCHEMAERLEDSVLKG | 3.06
4 | FTSPDYTQQCHEMAERLEDSVLKG | 2.02
5 | FTSPDYNQQCHEMAERLEDSVLKG | 3.16
6 | FTSPDYMQQCHEMAERLEDSVLKG | 2.01
7 | FTSPDYVQQCHEMAERLEDSVLKG | 2.02
8 | FTSPDYPQQCHEMAERLEDSVLKG | 2.27
9 | FTSPDYQQQCHEYAERLEDSVLKG | 1.93
10 | FTSPDYQQQCHELAERLEDSVLKG | 2.25
11 | FTSPDYQQQCHEWAERLEDSVLKG | 2.02
12 | FTSPDYQQQCHERAERLEDSVLKG | 2.09
13 | FTSPDYQQQCHEAAERLEDSVLKG | 2.03
14 | FTSPDYQQQCHEQAERLEDSVLKG | 2.24
15 | FTSPDYQQQCHEKAERLEDSVLKG | 2.79
16 | FTSPDYQQQCHETAERLEDSVLKG | 2.1
17 | FTSPDYQQQCHEHAERLEDSVLKG | 2.27
18 | FTSPDYQQQCHENAERLEDSVLKG | 2.66
19 | FTSPDYQQQCHECAERLEDSVLKG | 1.97
20 | FTSPDYQQQCHESAERLEDSVLKG | 2.53
21 | FTSPDYQQQCHEPAERLEDSVLKG | 2.83
22 | FTSPDYQQQCHEVAERLEDSVLKG | 1.91
23 | FTSPDYQQQCHEFAERLEDSVLKG | 1.85
24 | FTSPDYQQQCHEGAERLEDSVLKG | 2.56

Row | Variant | protein stability index
25 | FTSPDYQQQCHEIAERLEDSVLKG | 1.97
26 | FTSPDYQQQCHEEAERLEDSVLKG | 2.62
27 | FTSPDYQQQCHEDAERLEDSVLKG | 2.55
28 | FTSPDYQQQCHEMWERLEDSVLKG | 2.1
29 | FTSPDYQQQCHEMNERLEDSVLKG | 2.75
30 | FTSPDYQQQCHEMMERLEDSVLKG | 2.27
31 | FTSPDYQQQCHEMVERLEDSVLKG | 2
32 | FTSPDYQQQCHEMCERLEDSVLKG | 2.06
33 | FTSPDYQQQCHEMKERLEDSVLKG | 2.52
34 | FTSPDYQQQCHEMRERLEDSVLKG | 2.27
35 | FTSPDYQQQCHEMQERLEDSVLKG | 2.45
36 | FTSPDYQQQCHEMEERLEDSVLKG | 2.63
37 | FTSPDYQQQCHEMYERLEDSVLKG | 1.92
38 | FTSPDYQQQCHEMDERLEDSVLKG | 2.86
39 | FTSPDYQQQCHEMPERLEDSVLKG | 2.48
40 | FTSPDYQQQCHEMFERLEDSVLKG | 2.21
41 | FTSPDYQQQCHEMGERLEDSVLKG | 2.48
42 | FTSPDYQQQCHEMHERLEDSVLKG | 2.39
43 | FTSPDYQQQCHEMSERLEDSVLKG | 2
44 | FTSPDYQQQCHEMTERLEDSVLKG | 2.07
45 | FTSPDYQQQCHEMIERLEDSVLKG | 2.45
46 | FTSPDYQQQCHEMLERLEDSVLKG | 2.26
47 | FTSPDYQQQCKEMAERLEDSVLKG | 2.1
48 | FTSPDYQQQCEEMAERLEDSVLKG | 2.95

Row | Variant | protein stability index
49 | FTSPDYQQQCTEMAERLEDSVLKG | 2.1
50 | FTSPDYQQQCVEMAERLEDSVLKG | 2.52
51 | FTSPDYQQQCCEMAERLEDSVLKG | 1.8
52 | FTSPDYQQQCPEMAERLEDSVLKG | 2.66
53 | FTSPDYQQQCREMAERLEDSVLKG | 2.45
54 | FTSPDYQQQCYEMAERLEDSVLKG | 1.87
55 | FTSPDYQQQCFEMAERLEDSVLKG | 2.26
56 | FTSPDYQQQCMEMAERLEDSVLKG | 2.33
57 | FTSPDYQQQCDEMAERLEDSVLKG | 2.83
58 | FTSPDYQQQCAEMAERLEDSVLKG | 2.83
59 | FTSPDYQQQCQEMAERLEDSVLKG | 2.87
60 | FTSPDYQQQCSEMAERLEDSVLKG | 2.13
61 | FTSPDYQQQCGEMAERLEDSVLKG | 2.35
62 | FTSPDYQQQCLEMAERLEDSVLKG | 1.87
63 | FTSPDYQQQCIEMAERLEDSVLKG | 2.61
64 | FTSPDYQQQCNEMAERLEDSVLKG | 2.13
65 | FTSPDYQEQCHEMAERLEDSVLKG | 3.44
66 | FTSPDYQDQCHEMAERLEDSVLKG | 3.9
67 | FTSPDYQYQCHEMAERLEDSVLKG | 1.99
68 | FTSPDYQHQCHEMAERLEDSVLKG | 2.35
69 | FTSPDYQFQCHEMAERLEDSVLKG | 2.44
70 | FTSPDYQNQCHEMAERLEDSVLKG | 2.62
71 | FTSPDYQWQCHEMAERLEDSVLKG | 2.04
72 | FTSPDYQMQCHEMAERLEDSVLKG | 1.59

Row | Variant | protein stability index
73 | FTSPDYQSQCHEMAERLEDSVLKG | 2.18
74 | FTSPDYQGQCHEMAERLEDSVLKG | 2.81
75 | FTSPDYQPQCHEMAERLEDSVLKG | 4.29
76 | FTSPDYQCQCHEMAERLEDSVLKG | 1.64
77 | FTSPDYQRQCHEMAERLEDSVLKG | 1.72
78 | FTSPDYQKQCHEMAERLEDSVLKG | 2
79 | FTSPDYQIQCHEMAERLEDSVLKG | 1.63
80 | FTSPDYQTQCHEMAERLEDSVLKG | 2.6
81 | FTSPDYQAQCHEMAERLEDSVLKG | 1.96
82 | FTSPDYQLQCHEMAERLEDSVLKG | 1.68
83 | FTSPDYQVQCHEMAERLEDSVLKG | 2.47
84 | FTSPDYQQQCHEMAERHEDSVLKG | 2.52
85 | FTSPDYQQQCHEMAERCEDSVLKG | 2.25
86 | FTSPDYQQQCHEMAERIEDSVLKG | 2.12
87 | FTSPDYQQQCHEMAERAEDSVLKG | 2.86
88 | FTSPDYQQQCHEMAERMEDSVLKG | 1.92
89 | FTSPDYQQQCHEMAERKEDSVLKG | 1.97
90 | FTSPDYQQQCHEMAERGEDSVLKG | 2.54
91 | FTSPDYQQQCHEMAERFEDSVLKG | 2.01
92 | FTSPDYQQQCHEMAERDEDSVLKG | 3.18
93 | FTSPDYQQQCHEMAEREEDSVLKG | 2.97
94 | FTSPDYQQQCHEMAKRLEDSVLKG | 1.59
